This is an account of results in the RNAGym collection of RNA variant scans (doi:10.7554/elife.90254).

B1: OR4K15 (parent)
chain: GUUAACGGUCAUAGGCCAUGGAAACUAGGAGCACCAUUUCGCUGCCAGUGAAGAAAUGAACAAAGAAAAUCUGGGCCAGGCAGGCAUCAAAAGAAAUAGUCUUGCGCUCAACCAGAAAGUCUGUAAUCAUUUUAAGGGUA

The series covers variants of B1. The experiment in a line: self-cleavage, relative activity (ratio to wild type); higher = more cleavage; in vitro, sequencing; the parent is a self-cleaving ribozyme.
Regarding U70A U72C, the self-cleavage came out at 0.22.

Consider U70A U72A, for which the self-cleavage amounted to 0.24.

Turning to U70A U127C, the self-cleavage is 0.34.

Take A67G A98U: the self-cleavage is 1.26.

For the variant A67G U124C, the self-cleavage came out at 0.87.

Regarding A69G A86G, the self-cleavage was determined as 1.24.

A69U G136A: the self-cleavage was found to be 2.69.

As for A69G U72G, the self-cleavage amounted to 0.38.

A68U G75C: the self-cleavage was found to be 0.22.

Regarding A69G G123A, the self-cleavage amounted to 1.43.

Turning to A67U A92G, the self-cleavage is 2.2.

Consider A67G A111U, for which the self-cleavage amounted to 0.12.

Take A69G A135U: the self-cleavage is 1.45.

Consider A69G A135G, for which the self-cleavage came to 0.07.

As to A66U U120G, the self-cleavage worked out at 1.14.

Regarding A69U A94G, the self-cleavage is 2.42.

As to A67U C85U, the self-cleavage came out at 1.15.

Consider A68G G79U, for which the self-cleavage amounted to 0.07.

In the case of A69U A96G, the self-cleavage was 2.35.

On to A69U U103C, for which the self-cleavage is 0.51.

For the variant A67C A125G, the self-cleavage was found to be 0.85.

A69C A96U: the self-cleavage came to 0.68.

Take A67G A89U: the self-cleavage worked out at 1.53.

For A67G A89C, the self-cleavage turned out to be 1.63.

In the case of A67U A91G, the self-cleavage came to 1.91.

As to A68U C113A, the self-cleavage was 0.01.

As for A68U A114U, the self-cleavage turned out to be 0.06.

As for A68G A92U, the self-cleavage is 1.87.

With A69G A116G, the self-cleavage was determined as 0.56.

For A69G A116U, the self-cleavage amounted to 0.12.

As for A69G U132A, the self-cleavage was found to be 0.69.

A67G A125U: the self-cleavage was 0.11.

A69G A78C: the self-cleavage was found to be 0.36.

A69G A78G: the self-cleavage turned out to be 0.27.

A67U A125G: the self-cleavage worked out at 1.2.

Regarding A68C A94G, the self-cleavage stood at 1.69.

As to A67U A117G, the self-cleavage was determined as 2.28.

Regarding A68G C121U, the self-cleavage was determined as 0.29.

A67G U133C: the self-cleavage is 1.12.

Consider A68U A69G, for which the self-cleavage came to 0.98.

For the variant U70A A94G, the self-cleavage was 0.72.

Regarding A68G A82G, the self-cleavage was 0.62.

Consider A68G A82C, for which the self-cleavage is 0.2.

Take A68G A82U: the self-cleavage amounted to 0.22.

For the variant A68G U122A, the self-cleavage came out at 0.93.

On to A69G A114C, for which the self-cleavage is 0.01.

As to A69G A114U, the self-cleavage stood at 0.1.

Take A68U C88U: the self-cleavage was 2.47.

As to A68G U130A, the self-cleavage was 0.91.

Regarding A68G U130C, the self-cleavage is 1.13.

Regarding A67G G136A, the self-cleavage is 1.63.

In the case of A68U G106A, the self-cleavage was determined as 0.

As for A69G U124A, the self-cleavage amounted to 0.53.

As to A69G A91G, the self-cleavage was found to be 1.21.

With A69G A91U, the self-cleavage was 1.63.

As for A67G A69U, the self-cleavage was determined as 1.32.

For the variant A67G A69C, the self-cleavage came out at 1.68.

With A67G A86G, the self-cleavage was 1.22.

On to A69G U120A, for which the self-cleavage stood at 1.44.

For A69G U120C, the self-cleavage is 0.98.

For C71A A98G, the self-cleavage was determined as 0.14.

For U70C U72A, the self-cleavage worked out at 0.21.

For U70C U72C, the self-cleavage was 0.31.

As to A67G C121A, the self-cleavage turned out to be 2.73.

As for U70A U122C, the self-cleavage was 1.14.

U70C U108A: the self-cleavage was found to be 0.03.

Regarding U70C U108C, the self-cleavage stood at 0.02.

Turning to U70C U124C, the self-cleavage came out at 0.27.

Turning to U70C U124A, the self-cleavage came out at 0.17.

In the case of U70C U100C, the self-cleavage was 2.

For U70C U100A, the self-cleavage is 0.18.

For A68G U103G, the self-cleavage was 0.04.

On to A69G A134G, for which the self-cleavage stood at 1.17.

With A69G A92G, the self-cleavage is 0.72.

Consider A69G A92U, for which the self-cleavage was determined as 1.3.

With U70C A118G, the self-cleavage was 0.35.

Take U70C C109A: the self-cleavage came to 0.16.

As for U70G U122A, the self-cleavage came to 1.34.

Regarding C71A A78U, the self-cleavage stood at 0.26.

As for A69C A117U, the self-cleavage turned out to be 0.21.

A69G U139A: the self-cleavage turned out to be 1.69.

In the case of A66U U100C, the self-cleavage was determined as 2.47.

For the variant A68G U102A, the self-cleavage was 0.85.

On to A67G A68U, for which the self-cleavage is 1.13.

With U70C A78U, the self-cleavage was determined as 0.52.

Regarding A69G C85U, the self-cleavage worked out at 0.65.

As to C71U U132C, the self-cleavage amounted to 0.25.

Take A67G U127C: the self-cleavage was determined as 1.16.

Consider A68G U100A, for which the self-cleavage came to 0.24.

With A68G U100C, the self-cleavage turned out to be 1.42.

As for A67G A95U, the self-cleavage amounted to 1.41.

Take A69G A94G: the self-cleavage came to 1.36.

A69G A94U: the self-cleavage was found to be 1.45.

Turning to A69U U72C, the self-cleavage is 0.36.

For the variant A68U U103C, the self-cleavage amounted to 1.42.

For A67U U127C, the self-cleavage is 1.01.

Consider A67G G74U, for which the self-cleavage stood at 0.24.

Take U70C U131C: the self-cleavage worked out at 0.65.

For A69G U108C, the self-cleavage stood at 0.02.

Regarding A67G A82C, the self-cleavage was 0.13.

Regarding A67G A82G, the self-cleavage came out at 0.6.

A69G U87A: the self-cleavage stood at 1.29.

A69G U87C: the self-cleavage is 1.66.

A68C C88G: the self-cleavage amounted to 1.63.

As to A67G G83A, the self-cleavage was 2.38.

Regarding A67G C77U, the self-cleavage amounted to 1.03.

Turning to A69U A78C, the self-cleavage amounted to 0.31.

Take A67G G75A: the self-cleavage was 0.11.

Consider A67G U97A, for which the self-cleavage stood at 1.71.

In the case of A68G A126U, the self-cleavage turned out to be 0.66.

Regarding A68G A126G, the self-cleavage was 0.6.

A67U A134G: the self-cleavage stood at 1.09.

In the case of A69U A129U, the self-cleavage was 1.23.

For C71U U130C, the self-cleavage worked out at 0.13.

As for A69U A134G, the self-cleavage was 1.82.

Turning to A68G A89U, the self-cleavage came out at 2.23.

A68G A89C: the self-cleavage was 1.1.

With A68G C85U, the self-cleavage is 1.49.

Consider A68G A125G, for which the self-cleavage was found to be 0.48.

Take A69U A92G: the self-cleavage was determined as 2.17.

A68G A86G: the self-cleavage is 1.41.

As for A68G A86U, the self-cleavage is 1.51.

On to U70C C128U, for which the self-cleavage amounted to 0.31.

U70C U127C: the self-cleavage was 0.35.

Take A68G U139A: the self-cleavage came out at 2.25.

For the variant A67U C113U, the self-cleavage worked out at 0.42.

For A67U U130C, the self-cleavage was found to be 1.04.

Regarding U70C U87G, the self-cleavage is 0.04.

Turning to A67G U132A, the self-cleavage was 1.42.

A68G U133C: the self-cleavage was determined as 1.87.

A67U A94G: the self-cleavage was 1.22.

On to A67G U108C, for which the self-cleavage came out at 0.02.

In the case of A67G U108A, the self-cleavage was found to be 0.02.

For the variant A67G A78U, the self-cleavage came out at 0.33.

For the variant A68G G104A, the self-cleavage came out at 0.04.

Consider A67U G106C, for which the self-cleavage was 0.01.

In the case of A67G U139C, the self-cleavage is 1.64.

On to A67G U139A, for which the self-cleavage is 1.87.

On to U70C A117U, for which the self-cleavage stood at 0.59.

Turning to U70C U133C, the self-cleavage turned out to be 0.98.

Regarding A68G U87C, the self-cleavage was 1.12.

As for A68G A134U, the self-cleavage was determined as 1.49.

As for U70G A94G, the self-cleavage was 1.61.

A69U U108C: the self-cleavage turned out to be 0.02.

For the variant A68G U131C, the self-cleavage worked out at 0.99.

Regarding A67C A110G, the self-cleavage was 0.37.

Regarding A66U U108C, the self-cleavage amounted to 0.02.

In the case of A67G G104A, the self-cleavage is 0.08.

In the case of A68G U124A, the self-cleavage was 0.95.

Turning to A69U G137U, the self-cleavage is 2.12.

A69U G137A: the self-cleavage is 2.13.

For A69U A95G, the self-cleavage came to 2.37.

As for C71U A92G, the self-cleavage amounted to 0.52.

Consider A68G G99A, for which the self-cleavage stood at 0.57.

A68G A91G: the self-cleavage was 1.18.

Consider U70C A111G, for which the self-cleavage amounted to 0.02.

Regarding A67G U70G, the self-cleavage was 0.68.

Regarding A67G U70A, the self-cleavage amounted to 0.72.

Consider A69G U122G, for which the self-cleavage was found to be 1.83.

For U70A A117G, the self-cleavage came out at 0.03.

On to A69G A111C, for which the self-cleavage amounted to 0.02.

Consider A68G C101G, for which the self-cleavage stood at 0.08.

As to A68G C101A, the self-cleavage was 0.19.

A68G C71A: the self-cleavage stood at 0.6.

Turning to A69U U102C, the self-cleavage turned out to be 2.2.

As for A67C A117G, the self-cleavage turned out to be 2.74.

As to U70C G104A, the self-cleavage is 0.03.
